Data on 17 sequences can be found in the DeepSol protein solubility set.

The nature of this data set: soluble on expression in E. coli; label from the status in PepcDB or PDB records.
Regarding “MSLTTFIQLHLLTAYPAANLNRDDTGAPKTVVLGGATRLRVSSQSLKRAWRTSALFEQALAGHIGIRSGRIAREAATILIEKGIEEKKAIEWAAKIADYLGKAKNDKKPKDPLTNAETEQLVHISPAEFDAVKALAHQLAEEKRAPKEEDLALLRKDRMAVDIAMFGRMLANKPEFNVEAACQVAHAFGVSETIVEDDFFTAVDDLRQASEDAGAGHLGETGFGSALFYTYICIDKDLLVENLGGDEALANQTLRAFTEAALKVSPTGKQNSFASRAYASWALAEKGTEQPRSLAAAFYEPINGTRQLDVAVQRITTLRENMNTVYEQKTECASFDVMNKQGSMKDVLDFICAEGHHHHHH”, the “soluble on expression in E. coli” value is given as “soluble”.
The entry for “MGSDKIHHHHHHMNLWTSTPPMLRQISVRAAMDILLHQGPTSRADLAKKTGLSKQTMSEVIRTLETAGWVRVKGIVSGKVGRSAVTYEVAPDAGFVIGMDIGATTIRVAIADIAGTIVHEVEKSAGEHGGEALLAHVSGVVEASLKKARVSRSKVLLAAVAMPGVIDPETGRLSLAPNLSEIGSLDVIKALQGIFRCDVIIENDVNAAVIGESWKGSGIGLDSVAFVSLGTGIGLGVLFNGKLMRGAKGAAGEIGYLPFGADPYNSESLERGALECAIGARGILERYGNPGDGGMTVRDILEAAEKGDAKALATVQETARLAALLVVSVHAMLDPGKIILGGNVGRNPLMVRMVKEALATSTRSSISLEASTLASRATLVGAVAIALNQLHNALFSPQDLPSEMRLPA” is “not soluble”; for “MPIDDNIIIADEAVIHPGDLHEDFIRSSGPGGQNVNKVATAVQLRFDAANAAGLSERVRARTIKLAGQRATKDGVIVIEAGRFRTQEQNRADARARLTALVAKAAEPPPPPRKKTRPSKGAVERRLKSKAGRGTIKKLRGRVGDDLEHHHHHH” it is “soluble”; for “MAHHHHHHMAAADQLRYAAQMIELARSEEREDGNPLTAARCYTTAMEVIASEASKRAAMIESNEARRFFLFQVRSKLEMYHERAELLLQVANGSGLLDKPSLSNGDASALQTNYPPALFASAVANEKSSSGNGGVASCSTGGGVSVLGIPLQPQQMAPSAPPTQTQSSYGDFKEPPMSCYLKPDDDATAEPPPVTPELNLDELMKNLGAPPEL” it is “not soluble”.
The result for “MGSDKIHHHHHHMYETFEKLPDGKKEQIIQVCIEEFIENGYQNASTNTIVKRLGISKGVLFLYFKNKKNLYLYLVEYIMEFFIQDYFEEYAGGPVININVFDNLGEYYKELMQKKPELFLFMLQAFVNTPAELKEEIDARHNQAHDSLFRHMNNEGFRPGIDIHLVDDLLHMVSYYVGQLITNDLKGKDLNTIIKDEINKNIVRYAELFAKYVDILKYGVYER” reads “not soluble”; that for “MSLRFGIGYSATMGVRPNMEDVITFQTYPNDQHLFGLFDGHQGNVAAATSAICLHNELLQNAVNAPDDQLPAAITNCYTAVNQKLKMIGTRDGCTAISAFIRKNKCYTVGIGDSRIVLVKKNSSKRLTVDYKPTMRSEYERLRKCGLTVNSEGRIGRKLAVARTLGDFWCEGPGLYVPPDVSSFEINEEEDLALIIACDGVWDVIQDDDAAEIVRNSENAQDAATTLRNVAFALGSKDNISAMIVFFDSKEGHHHHHH”, “soluble”.
Regarding “MIIQDIIEAIEAVCPRAYQESYDNSGVQVGDTKREATGALLCVDVTEAVLEEAIRLGCNLVIAHHPILFKPLKRLTGSSYVERCVELAVRHGLVLYAAHTNADNAPQGLNALLAERFGLLNTRPLEPLQGKLLELVTFVPTEYADAVRQALWQAGAGRLGHYDCCSFSHAGTGTFRAAEGANPFVGAISELHHEAEERISLVLPAYRQGTVLQALHAAHPYELPAVSLIPLANDHPSAGGGIVGDLPSPISEREMLLHIKEVFGLKVLSHSAWRERPLRRMAICGGSGAFMWRRAAQEGADLFLTGEAKYNDFFDAGEHLLLVTIGHYESEEVANELFMRIISQKFPTFATHKSSVATNPVNYL”, the “soluble on expression in E. coli” value was “not soluble”.
Consider “SMSKHHKLARSLRSGPSDHDLKPNAATRDQLNIIVSYPPTKQLTYEEQDLVWKFRYYLTNQEKALTKFLKCVNWDLPQEAKQALELLGKWKPMDVEDSLELLSSHYTNPTVRRYAVARLRQADDEDLLMYLLQLVQALKYENFDDIKNGLEPTKKDSQSSVSENVSNSGINSAEIDSSQIITSPLPSVSSPPPASKTKEVPDGENLEQDLCTFLISRACKNSTLANYLYWYVIVECEDQDTQQRDPKTHEMYLNVMRRFSQALLKGDKSVRVMRSLLAAQQTFVDRLVHLMKAVQRESGNRKKKNERLQALLGDNEKMNLSDVELIPLPLEPQVKIRGIIPETATLFKSALMPAQLFFKTEDGGKYPVIFKHGDDLRQDQLILQIISLMDKLLRKENLDLKLTPYKVLATSTKHGFMQFIQSVPVAEVLDTEGSIQNFFRKYAPSENGPNGISAEVMDTYVKSCAGYCVITYILGVGDRHLDNLLLTKTGKLFHIDFGYILGRDPKPLPPPMKLNKEMVEGMGGTQSEQYQEFRKQCYTAFLHLRRYSNLILNLFSLMVDANIPDIALEPDKTVKKVQDKFRLDLSDEEAVHYMQSLIDESVHALFAAVVEQIH”, for which the “soluble on expression in E. coli” value is given as “soluble”.
Consider “MTASKIPIKKVCEHCKQEFIALKTTTKYCSHRCNSRAYKAQKREERVRRTELSEQEKKVSDIIDKPYLSISEAGRLLGISRHTIYRYIYSGNLKAYNLSSQRSIVKREDIERMLAERPYEKRQPRDAIVITELYTTDEVCDIHNISRSSLFAIAKRENIPRTYNRGKTYWSKRHIDAYFAKQAPASHIEEWCTAVEIQERFDMTLTAVYNFISDHNIPRKKVKGKSYYSTKHVEAAKGVLDKAAPSYYTVREAMEKFGLTRDQLYQYTKRYNVPKLKQGRNVLISQQELDEVLKPPSITR”, for which the “soluble on expression in E. coli” value is given as “not soluble”.
Regarding “MSLRLFGTHIQAAIRPVIWLLLWQASSGFANQVRVEVEGDYDQLQENAEILLGEVQDRTADGLRRYASSAAAQVEEAVRALGYYNPTIRWQVNEQDEAPAELVLTIVPGEPVRVRSRQVDIQGPGADDPDLVQSLPERPREGDILNHGEYDGLRQAIQNRAGRLGYFDGEYETRKLKVDPDANAADILLTYRTGERYQLGEVTFLEGHGFDEQLLRQFVTTEPGEPFHADKVARLNRDLSNSGYFSGVDIDASPSQAEDRVIPVTIGLTPRPPRSVSAGVGFSTDVGPRFRGNWREHYINSMGHKRGADTELSELRQSVSGWYELPLDPPMTDSIRLGTGYQREHVEDVESERLTFGQQWNHQLDDGWMQVLSMRWEGERFRIGDGERGTSSLLLPGVSYSKLQADSPLDPSRGFRLQLDVTGAHRAVLSDADILHVNLLAKGLYTLADNHRFLARFNFGGVATNNFSDVPPSLRFFAGGDQSVRGYGYETLSPEDSDGVAVGGRYLIVGSAEYQYEFARNWRVAAFVDEGNAVNDVFDPLATGVGVGIRWVSPVGPLRLDVARGLNEELGGGWRIHFSMGPEEGHHHHHH”, the “soluble on expression in E. coli” value is on record as “not soluble”.
In the case of “MGSDKIHHHHHHTGIWQWSVPVHNFSTHPKNPESRAYLWIPGQCEQVKAILVAQHNMEEISILEDEAFRQRMAELDVAQIWVCPSFNHGFDFTDGAWETLDGLLADLAEESGYKELSTAPLIAIGHSAAASWPYYLAAYKPERTLACISVSGQWPYHRDRWLCPDIWGERNINKIPCLETMGEYESAHTWSNEGLKERKEHPLLPLSMLACPAEGHFAYTPEKAQYIALYIKKAMHYGHVDPTKEGWLMERWKKNEKPSCIPAPVNQFKGDPAQAFWFFDREMIEATLAYQSRYYDMKPQLVSVSQNGKTVSQQNTHLQVHPAFIPQEDGITFQLTPVFLDTVPGESPRLSNWTDLPVGASIGHAGKAPVLQMITGPVVLVDSVTFRIQWNRGTLWTDKKSDIVFSITHPGDEEYKPAVQQAQMIIPVKNTEGQQQYIKFATLPDIKRGTKYVSLSAVSSCGLPVDFYVESGPAYVDGNRLILTAIPPKTTYPVKVTVIAWQYGKNSDPKIKTAEPVKQTFYIR”, the “soluble on expression in E. coli” value was “not soluble”.
With “MAHHHHHHMQQSSLVRRNVFHYTTVLTACTRAGQMDAAMMVFRQMKANKVKPNVYTYTTLINGCANAEKLDLALRIFAEMRLVEVPPNVKTMTALISVCSRCGQWKKGFQVLDQCEDLFIAPNALTYTAAMDGCRRAGVCTPAIALLEARMTDPSQVRPNEVTYNTVLGACAAAKDHKAALRVYARMVADGYEPIEYTRELLREVFRGTSLDGLADKLMVRVRTSKWEAYVPDSDPATALRAAQEGG”, the “soluble on expression in E. coli” value was “not soluble”.
Regarding “MGSDKIHHHHHHMGAKKNFVLDTNVILHDYKCIENFQENDIYLPIVVLEELDKFKKGSEQINYNAREFVRELDLLTSNDLFLKGASLGPGKGTLYIVTGDKYQEKIAHSFPDKTPDHRILSCALTIAEKNPKIKTTLVSKDVNLRMKARSLGIPVEDYITDKVVNVDIFERAQETYENIDPDLIDKIYSSPEGVDADSLDIKSKLDPNECFILKSVRNSVLARYNPFTDKIKKVDKGTNFGIQPRNAEQSFAFEVLNDPNIKLVGLTGKAGTGKTLLALASALKQAGTYKQILLARPIVALANKDLGFLPGDEKQKVAPYMQPLFDNLNVIKTQFAPGNPDVRKIDDMQKNNQLVIEALAFIRGRSLSETYCIIDEAQNLTPHEIKTIITRAGEGTKMVFTGDIQQIDSPYLDAQSNGLAYMIDKMKGQDLFAHINLIKGERSELSELASDLL”, the “soluble on expression in E. coli” value is “not soluble”.
Regarding “MDMSKASQEQFSMFMNLLCITVKDMPITEYYTSYILWEEVEFLEGVKDLLDPTSAFEDRRSSLYHHLGHNFASNCSLKDDNNVRDAHVVVEDHTKFDNYMYDQMTRKEWTSLHL”, the “soluble on expression in E. coli” value is reported as “soluble”.
For “MKEVLFISEMERGRAEIESRVSNIKTTQDFGYREKIKEKKDASTAYAACISELLLEEKVKKIAVAYDFPIFYSNYLTEAGFTIVPVKSPFRKMRSVKGPEEIEAIKYAQMAGEKAMEAAITLIADAEEKDGVLYFEGQVLTGAKVNSVIDHTLLDFGCEAEETIVSCGEDTSNPHGTTEGPLRANAPIILDIFPRSKKKRYFADMTRTVLRGEASEKLKEMYETVLVAQQKALEMVKPGIHSSEIHRAVCDLFEARGYHTYRSGSKAGFTHSTGHGVGLDIHELPSVGESGVLLETGNVITIEPGLYYPGIGGIRLEDMVLVTKTGYENFTGLEKKFVLKSFYNLEHHHHHH”, the “soluble on expression in E. coli” value was “not soluble”.
With “LVTKEVEYEDGDTVCKGFIAYHSSASKPLPCVMVAHDWGGRGEGACNKARQLAGMGYIGFAIDMYGNAKLGKDKAEKRALMTPFRENRGKLITRINAAFNKVVQLPEVDSEKVAAIGYCFGGLCVLDLIRSGAPLKGVVSFHGVLLPLEGESNKSLNAKVLILHGYDDPLVPIEQVNQFAIEMTERKVDWQVHVYGQTAHSFTDPGANDDEMGLHYNKLADQRSWQSTQLFLQELF”, the “soluble on expression in E. coli” value was “not soluble”.
As to “MVKSPGASPERKKVKIDVYPMVVKDPQAREINETLLFDYTTALSSFETPTEEQLLVSEGDAFRHHPNEDVEQYFRASAQWGVPAIAWNIVRPAFLWKLEFCITEFMNVEKKKKEAAANSAQANSEVEKIAESPVKEKLSILGHKVNLIKTTPVVFSTEESMEFVLSKAKSFDGFPFTWQRLCELLIEPMRHYNTIDKFLRAVDKVINVVTTINENGGRSFGDWDLPNSQQFHLENTFFGVVDEVEMMELEKVKHDFQSSSSPSEEPLDMSQKSMPAPRVSTASPDPPSFVLPTARSPINTSPSSSPKASSPKASSPKAASPVSSPKSPVIQDQSPKKEDAKEGEGEIVHEEEMPEETLEVETKNEVNKEDADMEIGAE”, the “soluble on expression in E. coli” value is reported as “not soluble”.
